Laboratory results from US20160024214A1 (Novo Nordisk, published 2016).
Several values for one entry are separate records, joined by “and”; a condition that tells them apart may be missing. Identical values can stand only once. Like-named read-outs stand apart in the source and are kept apart here. Blank lines part the entries; values can stand above or below the molecule they belong to.

How the values were obtained:
[1] = target: T1, human NKG2D (hNKG2D) on the cell surface (human, UniProt P26718 1-216); experiment: flow cytometry, NKG2D/DAP10 BaF/3 cells, dose-response
T1 construct: BaF/3 cells co-transfected with full-length NKG2D and DAP10, or native receptor on human NK, CD8+ and gamma-delta T cells of PBMC / whole blood; also called cell-surface NKG2D; NKG2D/DAP10-expressing BaF/3 cells
T1 chain: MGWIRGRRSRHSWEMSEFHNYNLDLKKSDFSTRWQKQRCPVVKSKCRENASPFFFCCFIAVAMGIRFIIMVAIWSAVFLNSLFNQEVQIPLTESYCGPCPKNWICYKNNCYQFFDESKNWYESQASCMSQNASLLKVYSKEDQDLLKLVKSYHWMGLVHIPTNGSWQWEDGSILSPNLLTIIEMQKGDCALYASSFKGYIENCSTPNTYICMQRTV

[2] = target: T1, human NKG2D (hNKG2D) on the cell surface; experiment: flow cytometry, NKG2D-expressing cells; 149810 first, then 16F16 as competitor
[3] = target: T1, human NKG2D (hNKG2D) on the cell surface; experiment: flow cytometry, NKG2D-expressing cells; pre-incubation with 149810, then ON72 as competitor (post-incubation antibody)
[4] = target: T1, human NKG2D (hNKG2D) on the cell surface; experiment: cell-based or functional assay
[5] = target: recombinant NKG2D-Fc (R&D Systems) (human) (UniProt P26718); experiment: SPR (Biacore), antibody over immobilised NKG2D-Fc, Langmuir fit
[6] = target: T1, human NKG2D (hNKG2D) on the cell surface; experiment: flow cytometry, NKG2D-expressing cells; ON72 first, then 16F16 as competitor
[7] = target: T1, human NKG2D (hNKG2D) on the cell surface; experiment: flow cytometry, NKG2D-expressing cells; ON72 first, then 16F16 as competitor (FIG. 9A legend)
[8] = target: T1, human NKG2D (hNKG2D) on the cell surface; experiment: flow cytometry, NKG2D/DAP10 BaF/3 cells; antibody pre-incubated, then 1 µg hFc-MICA as competitor
[9] = target: T1, human NKG2D (hNKG2D) on the cell surface; experiment: as above
[10] = target: T2, soluble hNKG2D fragment (residues 81-216 of SEQ ID NO:2) (human, UniProt P26718 81-216); experiment: complex purified by gel filtration; X-ray crystal structure 3.15 Å
T2 construct: Homodimer in the crystal with two hzON72 Fab molecules
T2 sequence: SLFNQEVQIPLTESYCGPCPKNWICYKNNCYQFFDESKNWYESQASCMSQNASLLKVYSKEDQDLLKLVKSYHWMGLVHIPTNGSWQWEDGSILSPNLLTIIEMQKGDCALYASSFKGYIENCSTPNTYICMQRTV

Molecule: ON72 (murine anti-hNKG2D antibody, Beckman Coulter)
% proliferation of PBMC, stimulation CD3 0.1 + CD28 + ON72 (immobilized) [4]: 22.9% | % proliferation of PBMC, stimulation CD3 0.1 + ON72 (immobilized) [4]: 7.12% | % proliferation of PBMC, stimulation CD3 0.3 + CD28 + ON72 (immobilized) [4]: 40.1% | % proliferation of PBMC, stimulation CD3 0.3 + ON72 (immobilized) [4]: 28.4% | EC50 (µg/ml), inhibition of NK-cell killing of ULPB3-expressing target cells (51Cr release) [4]: 0.065 µg/mL | down-modulation of cell-surface NKG2D, NKG2D/DAP10 BaF/3 cells, overnight, 1 µg [4]: 55% | internalization of NKG2D at 1 h, NKG2D+ lymphocytes in whole blood, 0.1 µg/ml [4]: 50 to 75% | internalization of NKG2D at 24 h, NKG2D+ lymphocytes in whole blood, 0.1 µg/ml [4]: 100% | EC50 [1]: 0.062 µg/mL and 0.048 nM | Kd [5]: 0.17 nM | koff [5]: 0.00011 s⁻¹ | kon [5]: 960000 M⁻¹ s⁻¹ | % of 16F16 binding blocked [6]: 82% | % of 16F16 binding prevented [7]: 85% | IC50 [8]: 0.019 µg/mL | full blockade of 1 µg MICA-Fc [8]: 0.54 µg/mL | IC50 [9]: 0.02 nM | full blockade of 1 µg MICA-Fc [9]: 0.24 nM

B1: 16F16 (recombinantly expressed, IgG4 isotype) (antibody, V domains shown)
VH: EVQLVESGGGLVKPGGSLRLSCAASGFTFSSYSMNWVRQAPGKGLEWVSSITSSSSYIYYADSVKGRFTISRDNAKNSLYLQMNSLRAEDTAVYYCARDRRYFDWFPLDYRGQGTLVTVSS
VL: DIQMTQSPSSLSASVGDRVTITCRASQGISSWLAWYQQKPEKAPKSLIYAASSLQSGVPSRFSGSGSGTDFTLTISSLQPEDFATYYCQQYNGYPYTFGQGTKLEIKR
notes: Fully human anti-hNKG2D antibody from KM mouse hybridoma; variable regions cloned into human IgG4 framework, expressed in HEK293 cells, protein A purified; also called 16F16 IgG4; 16F16 (IgG4)
EC50 [1]: 0.034 nM

Next, values leading:

EC50 [1]: 0.063 µg/mL and 0.042 nM | % blockade of 16F16 binding [2]: 50% | Inhibition (%) [3]: 85%
Molecule: 149810 (murine anti-hNKG2D antibody, R&D Systems)

binding result [10]: binds
B2: hzON72 Fab (humanized version of ON72 Fab fragment) (Fab, V domains shown)
VH: QVQLVQSGAEVKKPGASVKVSCKASGYTFTNYWMHWVRQAPGQGLEWMGEIDPSDIYTNYAQKFQGRVTMTRDTSTSTVYMELSSLRSEDTAVYYCARGIYDGYYVYGMDYWGQGTTVTVSS
VL: YIQMTQSPSSLSASVGDRVTITCRSSQDISNYLNWYQQKPGKAPKLLIYYTSRLHSGVPSRFSGSGSGTDFTFTISSLQPEDIATYYCQQGKTLPRTFGGGTKVEIKR
